From publication doi:10.1101/2023.06.07.543977

Target: T1, mKu (mycobacterial Ku) (Mycobacterium tuberculosis, UniProt P9WKD9 1-273)
T1 sequence: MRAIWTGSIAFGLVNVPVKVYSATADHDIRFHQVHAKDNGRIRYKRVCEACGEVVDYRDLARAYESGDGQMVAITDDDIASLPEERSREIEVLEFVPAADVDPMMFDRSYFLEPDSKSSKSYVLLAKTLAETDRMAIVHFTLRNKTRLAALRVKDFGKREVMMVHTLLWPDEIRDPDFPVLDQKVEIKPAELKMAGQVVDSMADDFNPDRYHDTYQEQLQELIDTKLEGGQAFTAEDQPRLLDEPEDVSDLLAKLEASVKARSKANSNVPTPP
Assay: SPR

B1: 29 bp dsDNA (dsDNA)
DNA 1: CGAACCAGCTGGCGCATAGCCGCGCTATC
DNA 2: GATAGCGCGGCTATGCGCCAGCTGGTTCG
apparent K (half saturation): 17.9 ± 4.58 nM

B2: 20 bp dsDNA (dsDNA)
DNA 1: GTCGTAGCCCACCTGACCGT
DNA 2: ACGGTCAGGTGGGCTACGAC
apparent K (half saturation): 10.8 ± 2.47 nM
